Here are results for one substance from patent US20220204611A1.

The target in the assay is human TREM2 on cells (human) (UniProt Q9NZC2). In words: cell-based or functional assay.
Chain of human TREM2 on cells (human) (Q9NZC2 19-230): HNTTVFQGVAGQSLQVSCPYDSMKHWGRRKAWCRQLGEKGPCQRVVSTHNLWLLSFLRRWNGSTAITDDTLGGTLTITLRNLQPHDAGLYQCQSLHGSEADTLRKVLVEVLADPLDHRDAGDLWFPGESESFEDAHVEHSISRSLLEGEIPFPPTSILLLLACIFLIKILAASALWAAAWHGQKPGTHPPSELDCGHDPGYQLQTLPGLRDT

“rat anti-human/mouse TREM2 antibody mAb17291 (Rat IgG2b Clone #237920, R&D Systems)” had an Emax (% maximum activation compared to RnD antibody) of 100%; a pSyk EC50, HEK293T human TREM2/DAP12 of 0.5 nM; a pSyk EC50, differentiated THP-1 cells of 0.383 nM; a pSyk Emax, HEK293T human TREM2/DAP12 of 13.8.
